Laboratory results as given in PMC2662417, “Pxmp2 Is a Channel-Forming Protein in Mammalian Peroxisomal Membrane” (PLoS ONE, 2009).

B1: native Pxmp2 purified from mouse liver peroxisomes (natural protein, mouse (endogenous in mouse liver), UniProt P42925 1-194, looked up)
chain: MAPAASRLRVESELGSLPKRALAQYLLLLKLYPVLTKAVSSGILSALGNLLAQTIEKKQRKDSRLLEVSGLLRYLVYGLFVTGPLSHYLYLFMEYSVPPEVPWASVKRLLLDRLFFAPTFLLLFFFVMNLLEGKNVSVFVAKMRSGFWPALQMNWRMWTPLQFININYVPLQFRVLFANMAALFWYAYLASLGK
notes: Pxmp2, peroxisomal membrane protein 2 (22 kDa), mouse; native protein isolated from liver peroxisomes; also called PMP22; purified Pxmp2; source: purified from mouse liver peroxisomes (conventional chromatography: ion-exchange and size-exclusion steps, in detergent)
B2: His-tagged Pxmp2 protein (natural protein, mouse, UniProt P42925 1-194, looked up)
chain: B1 chain
notes: Pxmp2, mouse, recombinant with a His tag (about 27 kDa); also called mouse recombinant Pxmp2

Assays:
[1] = target: the molecule itself; experiment: SEC + cross-linking; purified native Pxmp2 in detergent; Superdex 200 size-exclusion chromatography; protein eluted from the column treated with Sulfo-EGS, immunoblot with anti-Pxmp2; details in Text S1
[2] = target: the molecule itself; experiment: cross-linking; Genapol X-080-solubilised proteins (about 50 ug) of the PPF of Sf9 cells expressing His-tagged Pxmp2; DSS at 0.1, 0.2, 0.5 and 1.0 mM, 30 min at room temperature; SDS-PAGE, immunoblot with anti-His-tag antibodies

Protein | stoichiometry N [1] | stoichiometry N [2]
B1 | 3 | 
B2 |  | 3
